Data taken from US20240424107.

Test system: IgG Fc dimer protein, P01857-1
Conditions: printed ggAGG[2'-F-rU]Gc[2'-F-rU]ccgaaaGgaa[2'-F-rC][2'-F-rU]cc (lowercase DNA, uppercase RNA); about 10 oxanine nucleotides added at 3' end; at least one aptamer per Fc dimer, one or two observed; HEPES pH 8.4, Mg, K, 37 C, 1 day

“GGAGGTGCTCCGAAAGGAACTCC [Fc RNA aptamer Apt8-2-oxanine]” gave an activity (% conjugation) greater than 98.
